Laboratory results taken from patent US20120082688A1, “In Vitro Generation of Myeloid Derived Suppressor Cells” (MOUNT SINAI SCHOOL OF MEDICINE, priority 2008, published 2012).
Entries after “also recorded” stand apart in the source; their conditions may differ.

Key:
[1] = test system: HS-MDSC- and TD-MDSC-mediated suppression of T-cell proliferation; experiment: Suppression assay with iNOS inhibitor / arginase inhibitor: MDSCs co-incubated with B6 splenocytes, anti-CD3/anti-CD28, [3H]-thymidine; type: cell-based, mouse
Experimental: The suppressive activity of MDSCs was assessed either by co-culturing 1×10^5 129SvEv (using B6 for HSC-MDSCs comparison) splenocytes with various numbers of CD115^+ cells or […] in the presence of anti-CD3/anti-CD28 (0.5 μg/ml) or by co-culturing 2×10^5 129SvEv splenocytes (responder) with an equal number of irradiated (25 Gy) BALB/c splenocytes (stimulator) in the presence of various numbers of CD115^+ or CD115^− cells for 4 days. [^3H]-thymidine was added for the last 8 hours of incubation. For Treg induction, 4×10^6/well of 129SvEv (B6 for HSC-MDSCs) splenocytes and 1×10^6 CD115^+ or CD115^− cells were cocultured for 5 days in the presence of anti-CD3/anti-CD28 (0.5 μg/ml). Foxp3 expression was determined by intracellular staining and NO level in the supernatant was measured by Greiss reagents (Sigma-Aldrich, St. Louis, Mo.).
To delineate which of the aforementioned suppressive mechanism(s) play a major role, the functional activity of HS-MDSCs was evaluated when specific pathway(s) were interfered. To evaluate the role of iNOS, HS-MDSCs (developed from Lin− B6 BM cells) or TD-MDSCs were co-incubated with B6 splenocytes at a 1:2 ratio in the absence or presence of various concentrations of L-NMMA (L) or NOHA (N), or combination of L-NMMA and NOHA. Cells were stimulated with anti-CD3/anti-CD28 and [3H]-thymidine was pulsed for the final 8 hours of a 3-day culture.

HoxB4 ES cells = experiment: Differentiation of HoxB4 ES cells on OP9 stroma in M2 cytokine mix with added cytokines, FACS; type: cell-based, mouse
Experimental: Next, EB-derived cells were subjected to further differentiation by co-culturing them with OP9 stroma, an M-CSF-deficient cell line that has been widely used for in vitro differentiation of ES cells. For this, day 6 EBs (except otherwise specified) were trypsinized, and dissociated cells were seeded onto semiconfluent OP9 monolayers (irradiated immediately before coculture) at a density of 1×10^5/ml (2 ml/well, 6-well plate), and cultured in medium containing IMDM, 15% FCS (BenchMark, Gemcell), 2 mM L-glutamine, 100 U/mL penicillin and 100 μg/mL streptomycin, 1 ug/ml doxycycline, 1.5×10^−4M MTG, plus M1 cytokine mix composed of 1% c-kit Ligand (KL; CM), […] murine IL-6, and 0.5% WEHI (IL-3, CM). 2 days later, the medium was removed and replaced with 3 ml of fresh medium containing M2 cytokine mix consisting of 1% KL supernant, 0.5% murine thrombopoietin (TPO, CM), 40 ng/ml murine VEGF, 50 ng/ml murine Flt-3L or with medium containing M2 plus 10 ng/ml murine M-CSF (or M2+M-CSF) (all mouse recombinant cytokines were purchased from Peprotec Inc.), and medium was changed every other day thereafter. Unless otherwise specified, non-adherent and loosely attached cells were harvested after 10 days coculture in M2+M-CSF and used for morphologic, phenotypic, developmental, and functional analysis.
To enhance the production of ES cell-derived myeloid cells, additional cytokines were tested, including the colony-stimulating factor family members M-CSF and GM-CSF. […] For experiments in FIGS. 1C and D, Hoxb4 ES cells were differentiated with the same procedure as described in FIG. 1A, but in the last step cells were cultured for 10 day in M2 or M2 supplanted with M-CSF or GM-CSF (FIG. 1C) or M2 plus various concentration of M-CSF (FIG. 1D).

[2] = cytokine added to M2 cultures, 10 days

For `CNC(=N)NCCC[C@H](N)C(=O)O` [L-NMMA, N^G-monomethyl-L-arginine], the “reversal of MDSC suppression of T cells” value ([1]; 5 μM, MDSC:splenocyte 1:2, P<0.05 HSC MDSC, P<0.01 TD-MDSC) was “substantially reversed” and the “reversal of suppression of HS- and TD-MDSCs against T-cell proliferation” value ([1]; various concentrations, dose-dependent manner) was “partially but significantly reversed”.

In the case of `N=C(NO)NCCC[C@H](N)C(=O)O` [NOHA], the “interference with suppressive activity of HSC-MDSC or TD-MDSC” value ([1]; 500 μM, MDSC:splenocyte 1:2, P>0.05) is reported as “did not interfere significantly; also recorded: minimal effects”.

B1: macrophage colony-stimulating factor (protein, UniProt P07141 33-552, looked up)
Macrophage colony-stimulating …: KEVSEHCSHMIGNGHLKVLQQLIDSQMETSCQIAFEFVDQEQLDDPVCYLKKAFFLVQDIIDETMRFKDNTPNANATERLQELSNNLNSCFTKDYEEQNKACVRTFHETPLQLLEKIKNFFNETKNLLEKDWNIFTKNCNNSFAKCSSRDVVTKPDCNCLYPKATPSSDPASASPHQPPAPSMAPLAGLAWDDSQRTEGSSLLPSELPLRIEDPGSAKQRPPRSTCQTLESTEQPNHGDRLTEDSQPHPSAGGPVPGVEDILESSLGTNWVLEEASGEASEGFLTQEAKFSPSTPVGGSIQAETDRPRALSASPFPKSTEDQKPVDITDRPLTEVNPMRPIGQTQNNTPEKTDGTSTLREDHQEPGSPHIATPNPQRVSNSATPVAQLLLPKSHSWGIVLPLGELEGKRSTRDRRSPAELEGGSASEGAARPVARFNSIPLTDTGHVEQHEGSSDPQIPESVFHLLVPGIILVLLTVGGLLFYKWKWRSHRDPQTLDSSVGRPEDSSLTQDEDRQVELPV
notes: murine recombinant cytokine added to M2 cocktail
In the case of B1, the “production of both CD115^+ populations” value (HoxB4 ES cells; M2 plus cytokine, 10 days, dose-dependent) is reported as “significantly augmented”, the “increase of frequency of both CD115 positive populations” value (HoxB4 ES cells; added along with M2) is reported as “over 2 fold” and the “percentages of CD115^+ cells” value (HoxB4 ES cells; higher concentration, 20 ng/ml) is reported as “decreased”.

B2: granulocyte macrophage colony stimulating factor (protein, UniProt P01587 18-141, looked up)
Granulocyte-macrophage …: APTRSPITVTRPWKHVEAIKEALNLLDDMPVTLNEEVEVVSNEFSFKKLTCVQTRLKIFEQGLRGNFTKLKGALNMTASYYQTYCPPTPETDCETQVTTYADFIDSLKTFLTDIPFECKKPGQK
notes: colony-stimulating factor family cytokine added to M2 cultures
B2 was tested, and the “change of CD115+Ly-6C^+ cells” value (HoxB4 ES cells; [2]) was “dramatic decrease” and the “change of CD115^−Ly-6C^+ cells” value (HoxB4 ES cells; [2]) was “marked increase”.
